Assay [1] deals with T1, HLA-Cw*0102 on TAP deficient 721.174 cells (human (endogenous in 721.174)). As to the kind of experiment: FACS. On the technique in general: A flow cytometer gives signals particle by particle.
For assay [2], the target named is T1, HLA-Cw*0102 on TAP deficient 721.174 …. The experiment in a line: FACS. This is another data set of the same source.

Where two headings read alike, the source gives them in different places.

In general, Kd refers to the constant that tells how readily two partners part at equilibrium. Low readings indicate a tighter complex, high ones a looser complex.

B1: VAPWNSLSL (peptide)
chain: VAPWNSLSL
With B1, in assay [1], binding was put at a Kd of 180 nM.

B2: VAPWNSRAL peptide (peptide)
peptide: VAPWNSRAL
For the molecule B2, the Kd in assay [2] amounted to 190 nM.

B3: VAPWNSDAL peptide (peptide)
peptide: VAPWNSDAL
Molecule B3 came in with a Kd in assay [2] of 140 nM.

B4: VAPWNSFAL peptide (peptide)
peptide: VAPWNSFAL
In the case of B4, the Kd in assay [2] is 140 nM.

These data come from PMC4324016 (2014).
